Results from PMC6467989, “RNA recognition motifs of disease-linked RNA-binding proteins contribute to amyloid formation” (Scientific Reports, 2019).

Assays:
[1] = target: the molecule itself; assay: X-ray fibre diffraction; fibrils grown by agitation at room temperature for two days (RRMs 50 μM in 10 mM phosphate pH 7.5, 50 mM NaCl; peptides in water), also seen by negative-stain TEM; fibrils centrifuged, washed, dried, diffraction at room temperature; self-assembly into amyloid fibrils
[2] = target: the molecule itself; assay: ATR-FTIR spectroscopy; fresh protein or peptide against freshly prepared fibrils washed and re-suspended in D2O; amide I band 1600–1700 cm^-1; self-assembly into amyloid fibrils of parallel β-sheets
[3] = target: the molecule itself; assay: Thioflavin T fluorescence; fresh protein or fibrillar solutions mixed with ThT (final 20 μM), 10 mM phosphate buffer, excited at 442 nm, emission 460–600 nm; self-assembly into amyloid-like aggregates

Protein	binding result [1]	also measured
VLMVQVKK (TDP-43, human, β2 strand of RRM1, residues 130-137; source: synthetic peptide (synthesized by Mission Biotech)) [TDP-43 RRM1 β2a peptide]	binds	–
GEVLMVQVKK (TDP-43, human, β2 strand of RRM1, residues 128-137; source: synthetic peptide (synthesized by Mission Biotech)) [TDP-43 RRM1 β2b peptide]	binds	–
MINLYT (FUS, human, β2 strand of the RRM, residues 321-326; source: synthetic peptide (synthesized by Mission Biotech)) [FUS RRM β2 peptide]	–	binding result [2]: binds
FUS RRM (residues 281–375) (domain or fragment, human, UniProt P35637 281-375, looked up, Fused in Sarcoma (FUS), human, RNA recognition motif, residues 281-375; Vector PQE30 or pET28a; also called Fused in Sarcoma RRM; source: E. coli (M15 or BL21-CodonPlus (DE3) RIPL), purified (HisTrap FF, HiTrap Heparin HP, Superdex 75)) NSDNNTIFVQGLGENVTIESVADYFKQIGIIKTNKKTGQPMINLYTDRETGKLKGEATVSFDDPPSAKAAIDWFDGKEFSGNPIKVSFATRRADF	–	binding result [3]: binds
